Reference: patent publication US20260085127A1 (BRIGHTPATH BIOTHERAPEUTICS, published 2026)
Several values for one entry are separate records, joined by “and”; a condition that tells them apart may be missing. Equal entries are not always repeated. Where two headings read alike, the source gives them in different places. Each block holds one binder with its values, some of them ahead of it.

What was measured:
[1] = target: T1, biotinylated human TIM-3-Fc antigen (in-house product, SEQ ID No: 118) (human, biotinylated); experiment: flow cytometry, inhibition of biotinylated TIM-3-Fc binding to phosphatidylserine on apoptotic Jurkat cells
[2] = target: T2, human CD39 (Accession No. NM_001776.6) expressed on cells (human, UniProt P49961 1-510); experiment: flow cytometry on a mix of Jurkat, Jurkat/TIM-3, Jurkat/CD39 and Jurkat/TIM-3+CD39 cells in one well, antibody at 1 nM, BV421-anti-hIgG, MFI of BV421 per cell group
T2 construct: whole, on cells; On Jurkat, 293T or SK-MEL28 cells; also called Jurkat/CD39; 293T/CD39
T2 sequence (looked up): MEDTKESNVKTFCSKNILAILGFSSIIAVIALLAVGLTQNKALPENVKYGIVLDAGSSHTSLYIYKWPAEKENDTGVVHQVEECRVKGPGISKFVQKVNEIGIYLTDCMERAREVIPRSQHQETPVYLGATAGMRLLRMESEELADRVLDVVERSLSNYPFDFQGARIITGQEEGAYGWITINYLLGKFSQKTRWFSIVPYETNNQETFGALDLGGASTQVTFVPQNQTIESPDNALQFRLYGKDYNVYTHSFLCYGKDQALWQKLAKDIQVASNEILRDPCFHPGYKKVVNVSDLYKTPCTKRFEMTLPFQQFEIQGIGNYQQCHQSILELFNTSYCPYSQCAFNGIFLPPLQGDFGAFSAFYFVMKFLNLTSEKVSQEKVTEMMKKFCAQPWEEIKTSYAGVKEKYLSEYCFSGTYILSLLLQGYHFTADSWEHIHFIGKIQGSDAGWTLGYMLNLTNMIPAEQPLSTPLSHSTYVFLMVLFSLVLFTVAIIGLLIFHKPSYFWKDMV

[3] = target: T2, human CD39 (Accession No. NM_001776.6) …; experiment: flow cytometry, 293T/TIM-3 + CD39 cells, KD from MFI
[4] = target: T3, recombinant human CD39 (in-house product, 38 to 478 aa of Accession No. NM_001776.6) (human, UniProt P49961 38-478); experiment: SPR Biacore8K, antibody captured on anti-human IgG, antigen as analyte
T3 construct: also called rhCD39; human CD39-ECD; not shown: Myc and His tags at the C-terminus are named only for the PE-lab
T3 sequence (looked up): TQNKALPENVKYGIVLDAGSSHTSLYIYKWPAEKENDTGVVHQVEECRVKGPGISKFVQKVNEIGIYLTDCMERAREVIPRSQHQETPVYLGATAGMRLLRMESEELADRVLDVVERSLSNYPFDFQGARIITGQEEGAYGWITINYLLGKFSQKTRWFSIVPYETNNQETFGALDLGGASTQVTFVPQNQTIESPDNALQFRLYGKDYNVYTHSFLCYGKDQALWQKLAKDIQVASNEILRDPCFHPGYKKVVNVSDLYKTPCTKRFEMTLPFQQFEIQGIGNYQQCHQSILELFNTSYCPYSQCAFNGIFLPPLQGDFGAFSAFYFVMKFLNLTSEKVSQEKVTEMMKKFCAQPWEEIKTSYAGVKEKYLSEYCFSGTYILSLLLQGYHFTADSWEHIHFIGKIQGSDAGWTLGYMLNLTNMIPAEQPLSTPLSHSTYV

[5] = target: T2, human CD39 (Accession No. NM_001776.6) …; experiment: flow cytometry, 293T/CD39 cells, KD from MFI
[6] = target: T4, human TIM-3 (Accession No. JX049979.1) stably expressed on cells (human, UniProt Q8TDQ0 22-301); experiment: flow cytometry on a mix of Jurkat, Jurkat/TIM-3, Jurkat/CD39 and Jurkat/TIM-3+CD39 cells in one well, antibody at 1 nM, BV421-anti-hIgG, MFI of BV421 per cell group
T4 construct: whole, on cells; On Jurkat or 293T cells; also called Jurkat/TIM-3; 293T/TIM-3

[7] = target: T1, biotinylated human TIM-3-Fc antigen …; experiment: flow cytometry, inhibition of biotinylated TIM-3-Fc binding to phosphatidylserine on apoptotic Jurkat cells; remark: listed apart in the source
[8] = target: T1, biotinylated human TIM-3-Fc antigen …; experiment: competition ELISA: human Galectin-9 coated, biotinylated human TIM-3-Fc pre-mixed with the antibody dilution series, Streptavidin-HRP, A450; blocked ligand: human Galectin-9
[9] = target: T2, human CD39 (Accession No. NM_001776.6) …; experiment: flow cytometry, 293T/CD39 cells, KD from MFI; remark: listed apart in the source
[10] = target: T4, human TIM-3 (Accession No. JX049979.1) …; experiment: flow cytometry, 293T/TIM-3 cells, KD from MFI
[11] = target: T1, biotinylated human TIM-3-Fc antigen …; experiment: competition ELISA: human Galectin-9 coated, biotinylated human TIM-3-Fc pre-mixed with the antibody dilution series, Streptavidin-HRP, A450; blocked ligand: human Galectin-9; remark: listed apart in the source
[12] = target: T3, recombinant human CD39 (in-house …); experiment: SPR Biacore8K, antibody captured on anti-human IgG, antigen as analyte; remark: listed apart in the source
[13] = target: T2, human CD39 (Accession No. NM_001776.6) …; experiment: flow cytometry on a mix of Jurkat, Jurkat/TIM-3, Jurkat/CD39 and Jurkat/TIM-3+CD39 cells in one well, antibody at 0.1 nM, BV421-anti-hIgG, MFI of BV421 per cell group
[14] = target: T4, human TIM-3 (Accession No. JX049979.1) …; experiment: flow cytometry, Jurkat/TIM-3 + CD39 cells, KD from MFI
[15] = target: T4, human TIM-3 (Accession No. JX049979.1) …; experiment: flow cytometry, Jurkat/TIM-3 cells, KD from MFI

IC50 [1]: 8.93 nM and 7.11 nM and 8.51 nM and 12.3 nM
binding result [2]: no binding (tested: 1 nM)
B1: Hu003_13_F20_LA (antibody, V domains shown)
VH: QVQLQESGGGLVKPGGSLKLSCAASGFTFSSYYMSWVRQTPDKRLEWVATISNSGGSTYYPDSVKDRFTISRDNAKNTLYLQMSSLKSEDTAMYYCARDPYYTNYVPMDYWGQGTMVTVSS
VL: DIVMTQSPSFLSASVGDRVTITCKASQYVDTYVAWYQQRPGKAPKPLIYSASTRHTGVPSRFSGSGSGTEFTLTISSLQPEDFATYFCAQYSSSPLTFGGGTKLELK
notes: IgG1LALA homodimeric antibody (IgG1 with L234A and L235A); also called Hu003_LA; Hu003-LA

Kd [3]: 16.8 nM
Kd [4]: 0.629 nM
koff [4]: 0.000193 s⁻¹
kon [4]: 307000 M⁻¹ s⁻¹
Kd [5]: 7.04 nM
binding result [6]: no binding (tested: 1 nM)
B2: 6-3hIG_LA (antibody, V domains shown)
VH: QVQLVQSGAELVKPGASVKLSCKASGFSIKDTYVHWVKQAPGKGLEWIGKIDPANVNTKFDPKFQGRVTITADTSTNTAYLQLSSLRSEDTAVYYCALYGYDDDAYYFDYWGQGTLVTVSS
VL: EIVLTQSPASLSVSPGERATISCRASESVDNYGISFMNWFQQKPGQAPKLLIYAASNQGSGVPARFSGSGSGTDFTLTISSLEPEDFAVYYCQQSKEVPYTFGQGTKLEIK
notes: IgG1LALA homodimeric antibody; also called IgG1LALA homodimeric antibody of anti-CD39 antibody (humanized) 6-3hIG

IC50 [7]: 30.7 nM
IC50 (read off the curve) [8]: ~3 nM
B3: HuP4_11_Hu003_Ct (bispecific antibody)
chain 1: EVQLVESGGALVQPGRSLRLSCAVSGFTLSNYGVHWVRQAPGKGLEWVAVILRRGSTDYNAAFMSRFTISKDNSKNTVYLQMNSLRADDTAVVAGDYFDYWGQGTTVTVSSGGGGSGGGGSGGGGSGGGGSDIVMTQSQKFMSTSVGDRVSITCKASQNVGTNVAWYQQKPGQSPKLLIYSASYRYSGVPDRFTGSGSGTDFTLTISNMQSEDLADYFCQQYNSYPLTFGGGTKLEIK
chain 2: QVQLQESGGGLVKPGGSLKLSCAASGFTFSSYYMSWVRQTPDKRLEWVATISNSGGSTYYPDSVKDRFTISRDNAKNTLYLQMSSLKSEDTAMYYCARDPYYTNYVPMDYWGQGTMVTVSSGGGGSGGGGSGGGGSGGGGSDIVMTQSPSFLSASVGDRVTITCKASQYVDTYVAWYQQRPGKAPKPLIYSASTRHTGVPSRFSGSGSGTEFTLTISSLQPEDFATYFCAQYSSSPLTFGGGTKLELK

Kd [9]: 11.4 nM
Kd [10]: 8.66 nM
IC50 [7]: 16.5 nM
Kd [4]: 0.334 nM
IC50 (read off the curve) [8]: ~3 nM
B4: HuP4_IB_Hu003 (bispecific antibody)
chain 1: QVQLLESGPELVKPSATLSITCTVSGFSLTNYGVHWIRQAPGKGLEWLGVILRRGSTDYNAAFMSRFTISKDNSKNQVYFKLRSVTAEDTAVVAGDYFDYWGQGTMVTVSSGGGGSGGGGSGGGGSGGGGSDIQMTQSHSTLSLSVGDRVTITCKASQNVGTNVAWYQQKPGQPPKALIYSASYRYSGVPSRFSGSGSGTDFTLTISSVQAEDVAVYYCQQYNSYPLTFGPGTKLEIK
chain 2: B3 chain 2

Kd [10]: 4.78 nM
IC50 [1]: 25.2 nM
B5: I67_Hu003_Fsc (bispecific antibody, not shown: a dimerising Fc or GST)
VH: DVQLQESGPSLVQPSQSLSINCTVSGFSLSSYGVHWVRQSPGKGLEWLGVIWRRGSTDYNAAFMSRLSITKDNSKSQVFFKMNRLQADDTATYYCAKGISTATSWFAYWGQGTLVTVSA
VL: DIVMTQSHKFMSTSVGDRVSVTCKASQNVGTNVAWYQQKPGQSPKALIYSASYRYSGVPDRFTGSGSGTDFTLTISNVQSEDLAEYFCQQYNSYPLTFGAGTKLELK
scFv: B3 chain 2
notes: Fab-scFv-Fc heterodimer: anti-CD39 Fab I67 (Knob)

Kd [9]: 17.6 nM
IC50 (read off the curve) [11]: ~2 nM
IC50 [1]: 15.5 nM
Kd [12]: 0.21 nM
B6: 6-3hIG_Hu003_Fsc (bispecific antibody, not shown: a dimerising Fc or GST)
VH: B2 VH
VL: B2 VL
scFv: B3 chain 2

Kd [9]: 3.94 nM
IC50 [1]: 19.8 nM
Kd [12]: 2.7 nM
B7: mAnE67_Hu003_Fsc (bispecific antibody, not shown: a dimerising Fc or GST)
VH: EVQLVESGGGLVKPGGSRKLSCAASGFTFSDYGMHWVRQAPEKGLEWVAYISSGSSIIYYADTVKGRFTISRDNAKNTLFLQMTGLRSEDTAMYYCARKDYPYAMDYWGQGTSLAVSS
VL: SIVMTQTPKFMSTSVGDRVSVTCKASQNVGTNVAWYQQKPGQSPKALIYWASNRFTGVPDRFTGSGSGTDFTLTISNVQSEDLADYFCQQYSSSPYTFGSGTKLEIK
scFv: B3 chain 2
notes: Fab-scFv-Fc heterodimer: anti-CD39 mAnE67 arm (Knob)

binding result [13]: no binding (tested: 0.1 nM)
Kd [14]: 31.2 nM
Kd [15]: 26.8 nM
B8: Hu072_11_sc (antibody)
scFv: QVQLQESGGGLVKPGGSLKLSCAASGFTFSSYYMSWVRQTPDKRLEWVATISNSGGSTYYPDSVKDRFTISRDNAKNTLYLQMSSLKSEDTAMYYCARDPYYTNYVPMDYWGQGTMVTVSSGGGGSGGGGSGGGGSGGGGSDIVMTQSPDSLAVSLGERVTLSCKASENVGTYVSWYQQKPRQPPKLLIYGASNRYTGVPDRFSGSGSGTDFTLTISSLQAEDVALYYCGQSYSYPLTFGQGTRLEIK
notes: scFv-Fc homodimer, anti-TIM-3; also called scFv-Fc homodimeric antibody of anti-TIM-3_ScFv antibody Hu072_11; not shown: GGGG linker and Fc-LALA (IgG1 Fc with L234A and L235A)
